In publication PMC8807537 (Acta Naturae, 2021):

Target: T1, recombinant protein GP Zaire ebolavirus (H. sapiens-wt/GIN/2014/Kissidougou-C15 strain) (Zaire ebolavirus, …, UniProt X5HMX4, strain)
T1 construct: also called EBOV GP; recombinant EBOV GP
Test: ELISA; indirect ELISA; […] (1 ug/ml) […]
Details: both partners purified

B1: control antibody MAb114 (antibody, V domains shown)
VH: EVQLVESGGGLIQPGGSLRLSCAASGFALRMYDMHWVRQTIDKRLEWVSAVGPSGDTYYADSVKGRFAVSRENAKNSLSLQMNSLTAGDTAIYYCVRSDRGVAGLFDSWGQGILVTVSS
VL: DIQMTQSPSSLSASVGDRITITCRASQAFDNYVAWYQQRPGKVPKLLISAASALHAGVPSRFSGSGSGTHFTLTISSLQPEDVATYYCQNYNSAPLTFGGGTKVEIK
B1: binds.
